This note sets out measurements from patent US7115576B2, “Water-soluble antibiotic comprising an amino sugar, in the form of a polysaccharide conjugate” (Fresenius Kabi Deutschland GmbH, priority 2001, dated 2006).

The nature of series [1]: Water solubility. The format is physicochemical.
Series [2] concerns erythrocytes. Kind of series: Haemolysis comparison test (extinction of supernatant at 576 nm). Format: cell-based, human. Conditions: 37°C, 20 min. The protocol: Of this stock solution, three dilutions were produced in accordance with Table 2 and their haemolytic action also investigated.
Production of the erythrocyte suspension: freshly taken human blood was diluted with approximately 5 times the volume of sterile 0.9% NaCl solution (batch designation: 9055A64 produced by the company Braun Melsungen) and centrifuged for 5 minutes at a relative centrifugal acceleration of 2000. The supernatant solution was then drawn off and the sedimented erythrocytes treated twice more in the same way.
The erythrocytes thus washed were counted in a Neubauer counting chamber and—where necessary—diluted again with sterile 0.9% NaCl solution to a final concentration of approx. 5·10^8 erythrocytes per ml. This suspension is according to DIN standard usable at room temperature for up to 6 hours.
Haemolysis comparison test: 5 ml of the solution to be tested was mixed with 1 ml of the above erythrocyte suspension, transferred to a cleaned centrifuge tube and incubated in a water bath at 37±1° C. for 20 minutes. Centrifuging was then performed for 5 minutes at a relative centrifugal acceleration of 2000.
The extinction of the supernatant liquid was measured. 5 ml of the 0.9% NaCl solution and the 5% glucose solution, which were mixed with 1 ml of the erythrocyte suspension, also incubated at 37±1° C. for 20 minutes and then centrifuged as above, served as negative controls.
For the test for haemolysis, the extinctions of the respective supernatants were measured in a photometer against the negative controls at a wavelength of 576 nm using a cuvette 10 mm in thickness. Owing to the differing stainings of the solutions, the extinction was also measured for the purpose of comparing the solutions without erythrocyte suspension.

As for `C[C@@H]1[C@H](O)[C@@H](C)/C=C/C=C/C=C/C=C/C=C/C=C/C=C/[C@H](O[C@@H]2O[C@H](C)[C@@H](O)[C@H](N)[C@@H]2O)C[C@@H]2O[C@](O)(C[C@@H](O)C[C@@H](O)[C@H](O)CC[C@@H](O)C[C@@H](O)CC(=O)O[C@H]1C)C[C@H](O)[C@H]2C(=O)O` [Amphotericin B, reference compound], in series [1], the “water solubility” value is “virtually insoluble in water”.

Consider “Amphotericin B-HES Conjugate [Ampho HES]”, for which the water solubility in series [1] is recorded as > 0.1 g/5 ml H2O. Moreover, the “Extinction 576 nm” value in series [2] (amphotericin B 0.1 mg/ml in the test batch (0.12 mg/ml in the solution)) is 0.027; in series [2] (amphotericin B 0.2 mg/ml in the test batch (0.24 mg/ml in the solution)) it was 0.061; in series [2] (amphotericin B 0.4 mg/ml in the test batch (0.48 mg/ml in the solution)) it was 0.274*); in series [2] (amphotericin B 0.83 mg/ml in the test batch (1.00 mg/ml stock solution)) it was 2.452*)**).
